Measurements: PMC11272076 (Journal of Experimental Botany, 2024)

T1: CLuc–CML24 (Arabidopsis thaliana, UniProt P25070 1-161)
T1 sequence: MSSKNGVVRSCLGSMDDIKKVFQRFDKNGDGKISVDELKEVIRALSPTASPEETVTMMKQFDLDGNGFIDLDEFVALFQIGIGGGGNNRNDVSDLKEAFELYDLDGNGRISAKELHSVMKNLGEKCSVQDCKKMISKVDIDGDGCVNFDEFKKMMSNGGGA

T2: dansylated CML13 (Arabidopsis thaliana, UniProt Q94AZ4 1-148, covalent dansyl label (site not stated))
T2 sequence: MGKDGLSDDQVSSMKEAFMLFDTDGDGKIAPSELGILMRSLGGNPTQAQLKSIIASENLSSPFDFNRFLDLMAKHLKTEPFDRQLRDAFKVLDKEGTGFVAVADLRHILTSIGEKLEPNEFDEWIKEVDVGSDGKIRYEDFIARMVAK

T3: dansylated CML14 (Arabidopsis thaliana, UniProt Q8VZ50 1-148, covalent dansyl label (site not stated))
T3 sequence: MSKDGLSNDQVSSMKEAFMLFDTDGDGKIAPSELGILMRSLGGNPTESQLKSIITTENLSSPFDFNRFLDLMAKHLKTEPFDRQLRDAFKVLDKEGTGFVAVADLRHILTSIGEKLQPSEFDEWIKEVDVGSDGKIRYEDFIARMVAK

T4: CLuc–CML13 (Arabidopsis thaliana, UniProt Q94AZ4 1-148)
T4 sequence: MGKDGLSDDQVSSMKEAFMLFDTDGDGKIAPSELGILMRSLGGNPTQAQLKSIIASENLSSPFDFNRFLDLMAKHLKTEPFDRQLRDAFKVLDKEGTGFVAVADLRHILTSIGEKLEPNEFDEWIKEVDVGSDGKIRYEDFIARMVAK

T5: CLuc–CML14 (Arabidopsis thaliana, UniProt Q8VZ50 1-148)
T5 sequence: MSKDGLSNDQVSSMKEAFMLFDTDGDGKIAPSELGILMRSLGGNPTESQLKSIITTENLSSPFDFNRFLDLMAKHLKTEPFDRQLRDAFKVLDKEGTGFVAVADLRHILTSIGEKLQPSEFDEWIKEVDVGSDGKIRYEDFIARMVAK


How the values were obtained:
CLuc–CML24 = target: T1, CLuc–CML24; assay: split reporter
dansylated CaM = dansylated CaM (petunia, UniProt P62199 1-149, covalent dansyl label (site not stated)); assay: steady-state dansyl fluorescence spectroscopy
dansylated CML13 = target: T2, dansylated CML13; assay: steady-state dansyl fluorescence spectroscopy
dansylated CML14 = target: T3, dansylated CML14; assay: steady-state dansyl fluorescence spectroscopy
CLuc–CML13 = target: T4, CLuc–CML13; assay: split reporter
CLuc–CML14 = target: T5, CLuc–CML14; assay: split reporter

Row | Binder | fold signal above background (CML42 control) (CLuc–CML24) [fold] | binding result (dansylated CaM) | binding result (dansylated CML13) | binding result (dansylated CML14) | fold signal above the CML42 control (CLuc–CML13) [fold] | fold signal above the CML42 control (CLuc–CML14) [fold]
1 | myosin ATM2 neck region (residues 878–967), NLuc fusion (domain or fragment) RKKVLQGIVGLQKHFRGHLSRAYFQNMRKVTLVLQSYIRGENARRLFDTEAKFHADSVSEASTDELSAVIHLQSAVRGWLARKHFNSMQR | ~2 |  |  |  |  | 
2 | LHGILRVQSSFRGYQARCLLKEL [ATM1-IQ1 synthetic peptide] |  | binds | binds | binds |  | 
3 | myosin VIII-A neck region (residues 828–930), NLuc fusion (domain or fragment) RNRTLHGILRLQSYFRGHQARCRLKELKTGITILQSFVRGEKMRKEYTELLQRHRASAAIQSHVKRRIASQQYKATVDASAVIQSAIRGELVRRCAGDIGWLS | ~2 |  |  |  | ~200 | ~200
4 | myosin ATM1 neck region (residues 848–943), NLuc fusion (domain or fragment) RTLHGILRVQSSFRGYQARCLLKELKRGISILQSFVRGEKIRKEFAELRRRHKAAATIQSQVKSKIARIQYKGIADASVVIQSAIRGWLVRRCSGD | ~2 |  |  |  | ~35 | ~35
5 | LQGIVGLQKHFRGHLSRAYFQNM [ATM2-IQ1 synthetic peptide] |  | binds |  |  |  | 
